One block for each substance: values may come before it.
Target: SV2A (SV2)
Assay: SV-PD (synaptic vesicle pull-down) with blocking peptide, immunoblot densitometry
Conditions: pull down w/ C3WildF (m1), lower value = stronger block of SV capture by the peptide, parent: est. 39, read off a plot

Substance: … mimetic blocking peptide (CaV2.2 aa 2319-2328) R4G; R5G; V6A; P7G; N8G; Y10A
other: SV2 capture by C3WildF in presence of peptide (% SH3) (N = 8): 110 % SH3

Substance: … mimetic blocking peptide (CaV2.2 aa 2319-2328) V6A; P7A; N8A; G9A; Y10A
other: SV2 capture by C3WildF in presence of peptide (% SH3) (N = 5): 44 % SH3

Substance: … mimetic blocking peptide (CaV2.2 aa 2319-2328) V6A; Y10A
other: SV2 capture by C3WildF in presence of peptide (% SH3) (N = 8): 29 % SH3

Substance: … mimetic blocking peptide (CaV2.2 aa 2319-2328) H1G; Q2G; V6A; P7G; N8G; Y10A
other: SV2 capture by C3WildF in presence of peptide (% SH3) (N = 8): 74 % SH3

Substance: … mimetic blocking peptide (CaV2.2 aa 2319-2328) V6A; P7G; N8G; Y10A
other: SV2 capture by C3WildF in presence of peptide (% SH3) (N = 7): 41 % SH3

The next lines start with the values.

other: SV2 capture by C3WildF in presence of peptide (% SH3) (N = 3): 83 % SH3
Substance: … mimetic blocking peptide (CaV2.2 aa 2319-2328) R4A; R5A

other: SV2 capture by C3WildF in presence of peptide (% SH3) (N = 8): 58 % SH3
Substance: … mimetic blocking peptide (CaV2.2 aa 2319-2328) H1A; Q2A

other: SV2 capture by C3WildF in presence of peptide (% SH3) (N = 6): 44 % SH3
Substance: … mimetic blocking peptide (CaV2.2 aa 2319-2328) V6G; Y10G

other: SV2 capture by C3WildF in presence of peptide (% SH3) (N = 6): 28 % SH3
Substance: … mimetic blocking peptide (CaV2.2 aa 2319-2328) V6G; P7A; N8A; G9A; Y10G

Reference: PMC4899477
